Test [1] deals with T1, human FCGRT (human, UniProt P55899 24-297, biotinylated (Avi tag) in the blocking assays).
T1 construct: Alpha chain alone, expressed in Expi293 cells with His and Avi tags; also called FCGRT of human FcRn protein; biotinylated human FCGRT; not shown: His tag and Avi tag
Nature of the test: ELISA: human FCGRT coated, antibody titrated, goat anti-human IgG Fab-HRP, OD450. In general terms: In an ELISA, binding on a coated surface is turned into a signal by an enzyme label.

The target in test [2] is T2, Cynomolgus monkey FcRn-alpha (cynomolgus monkey, UniProt Q8SPV9 24-297, limits assumed).
T2 construct: The printed entry looks like the full-length precursor (signal peptide, transmembrane and cytoplasmic parts); also called cynoFcRn; not shown: His tag and Avi tag
Nature of the test: ELISA: cynoFcRn coated, antibody titrated, goat anti-human IgG Fab-HRP, OD450.

Test [3] addresses T1, human FCGRT. Nature of the test: competition ELISA: human IgG coated, biotinylated human FCGRT plus antibody, SA-HRP.
Test [4] concerns the target human FcRn (human FCGRT and B2M) on stably transfected MDCK cells (human) (UniProt P55899). Nature of the test: cell-based or functional assay.
For test [5], the target named is T1, human FCGRT. Nature of the test: ELISA: human FCGRT coated, antibody titrated, goat anti-human IgG Fab-HRP, OD450. The source holds these as a separate data set.
Test [6] has as its target Human recombinant FCGRT & B2M Heterodimer Protein (hFcRn) (human) (UniProt P55899). Nature of the test: ELISA, hFcRn coated at 1 ug/mL, antibody titrated, anti-human IgG Fab-HRP.
For test [7], the target named is T1, human FCGRT. Nature of the test: competition ELISA: human IgG coated, biotinylated human FCGRT plus antibody, SA-HRP. This is another data set of the same source.
In test [8] the target is human FcRn (human FCGRT and B2M) on stably transfected MDCK cells (human) (UniProt P55899). Nature of the test: cell-based or functional assay. The source holds these as a separate data set.
The target of test [9] is T3, human FcRn (human FCGRT and B2M) on stably transfected MDCK cells (human, UniProt P55899 24-365; P61769 21-119). Nature of the test: cell-based or functional assay.
The target in test [10] is T1, human FCGRT. Nature of the test: ELISA on coated human FCGRT, IgG4 antibody titrated.
Procedure: (§1) Measurement of the binding specificity of anti-FcRn antibodies to FCGRT and B2M by EILSA: Briefly, human FCGRT or B2M was coated on a 96-well plate at 4° C. overnight, after removing the coating solution, a blocking buffer containing 1% BSA was added into the plates followed by incubation at room temperature for 1 hour to block unspecific binding. Plates were then washed with wash buffer, and serial dilutions of anti-FcRn antibodies were added to the wells and incubated at room temperature for 1 hour. […] The wells were washed before adding 100 μL/well of TMB and incubated for 5-10 minutes at 37° C. 2M H₂SO₄ was used to stop the reaction. […] The ELISA results (OD450) were analyzed, and the binding curves were generated by Graphpad PRISM.
The target of test [11] is T2, Cynomolgus monkey FcRn-alpha. Nature of the test: ELISA on coated cynoFcRn, IgG4 antibody titrated.
Procedure: (§2) hFcRn binding of purified full-length chimeric antibodies: The hFcRn antigen binding ELISA was performed on the purified full-length chimeric antibodies (reformatted as IgG4). Briefly, plates were coated overnight at 4° C. with 1 μg/mL of hFcRn (cat #CT009-H08H) in PBS. After removing the coating solution, the wells were blocked by adding blocking buffer and incubated at room temperature for 1 hour. Plates were then washed 6 times with wash buffer. Serial dilutions of purified antibodies in PBS were added to individual wells followed by incubation at room temperature for 1 hour. Plates were washed 6 times with wash buffer. […] Plates were incubated at 37° C. for 1 hour, washed 6 times with wash buffer, and developed for 5-10 minutes with 50 L/well of TMB substrate, then quenched with 2M H₂SO₄. […] The ELISA results (OD450) were analyzed, and the binding curves were generated by Graphpad PRISM.
Analysis of cross-reactivity to FcRn from different species: To examine whether the anti-FcRn antibodies bind to FcRn from different species, antigen binding ELISA assays were performed as described above except that cynoFcRn, mFcRn, or rFcRn was used in the assay instead of hFcRn.
The target of test [12] is T1, human FCGRT. Nature of the test: competition ELISA: human IgG coated, biotinylated human FCGRT plus antibody, SA-HRP. This is another data set of the same source.
Procedure: (§3) After removing the coating solution, the wells were blocked with a blocking buffer containing 1% BSA at room temperature for 1 hour. Plates were then washed with wash buffer. […] After incubation, 100 μL of SA-HRP (1:20,000) was added to each well and incubated for 1 hour at 37° C. The wells were washed before adding 100 μL/well of TMB and incubated for 5-10 minutes at 37° C. 2M H₂SO₄ was used to stop the reaction. […] The ELISA results (OD450) were analyzed, and the binding curves were generated by PRISM.
The target in test [13] is T4, Human recombinant FCGRT & B2M Heterodimer Protein (hFcRn) (human, UniProt P55899 24-297; P61769 21-119).
T4 construct: Bought protein; also called human FcRn
Nature of the test: SPR, Biacore T200, antibody (IgG4) on CM5 chip, hFcRn in solution, pH 6.0. (Surface plasmon resonance follows binding to a sensor surface in real time, without labels.)
Procedure: The anti-FcRn antibodies were stabilized on sensor chip CM5. The affinities for hFcRn of antibodies at various concentrations were measured. […] Using the SPR technology, the association and dissociation rates were measured, and binding affinity was determined.

The target in test [14] is T5, human B2M (human, UniProt P61769 21-119, limits assumed).
T5 construct: also called beta-2-microglobulin; not shown: His tag and Avi tag
Nature of the test: ELISA: human B2M coated, antibody titrated, OD450.

For test [15], the target named is T4, Human recombinant FCGRT & B2M …. Nature of the test: ELISA on coated hFcRn, IgG4 antibody titrated.
Procedure: as §2
Test [16] deals with T1, human FCGRT. Nature of the test: blocking ELISA: human IgG coated, biotinylated human FCGRT plus titrated antibody, SA-HRP, OD450; blocked ligand: human IgG.
Procedure: as §3
Test [17] concerns the target T3, human FcRn (human FCGRT and B2M) on …. Nature of the test: cell-based or functional assay. The source holds these as a separate data set.
Test [18] concerns the target T5, human B2M. Nature of the test: ELISA: human B2M coated, antibody titrated, OD450. This is another data set of the same source.
Procedure: as §1
In test [19] the target is T4, Human recombinant FCGRT & B2M …. Nature of the test: ELISA: hFcRn coated (1 ug/mL), antibody (IgG4) titrated, goat anti-human IgG Fab-HRP, OD450.
Procedure: as §2
Test [20] addresses T6, Rattus norvegicus FcRn-alpha (rat, UniProt P13599 23-298).
T6 construct: Alpha chain alone; also called rFcRn; rat FcRn; not shown: His tag and Avi tag
T6 sequence: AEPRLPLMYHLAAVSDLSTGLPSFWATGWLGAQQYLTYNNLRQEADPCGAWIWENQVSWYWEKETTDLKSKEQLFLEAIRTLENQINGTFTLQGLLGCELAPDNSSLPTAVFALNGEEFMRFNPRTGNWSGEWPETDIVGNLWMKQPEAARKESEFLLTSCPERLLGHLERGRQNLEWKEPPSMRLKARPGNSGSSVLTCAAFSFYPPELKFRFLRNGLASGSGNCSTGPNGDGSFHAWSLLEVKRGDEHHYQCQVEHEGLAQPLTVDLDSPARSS
Nature of the test: ELISA: rFcRn coated, antibody titrated, goat anti-human IgG Fab-HRP, OD450.

Test [21] deals with T1, human FCGRT. Nature of the test: ELISA: human FCGRT coated, antibody titrated, goat anti-human IgG Fab-HRP, OD450. This is another data set of the same source.
Procedure: as §1

Positions count from the first letter of the chain named. Where two headings read alike, the source gives them in different places.

T2 sequence (Q8SPV9 24-297 limits assumed): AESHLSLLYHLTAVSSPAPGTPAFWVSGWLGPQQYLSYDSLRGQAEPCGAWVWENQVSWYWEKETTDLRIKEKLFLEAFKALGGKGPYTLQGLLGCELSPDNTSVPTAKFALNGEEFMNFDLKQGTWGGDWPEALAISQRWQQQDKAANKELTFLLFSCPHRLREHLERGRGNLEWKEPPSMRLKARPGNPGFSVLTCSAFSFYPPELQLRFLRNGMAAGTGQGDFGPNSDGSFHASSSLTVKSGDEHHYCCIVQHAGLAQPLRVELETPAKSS
T1 sequence (P55899 24-297 limits assumed): as the sequence (Q8SPV9 24-297 limits assumed) above, with D39N, Q44E, S99G, G189S, N190S, M217L, T269S counted along it
T4 sequence (P55899 24-297 limits assumed, chain 1 of 2): as the sequence (Q8SPV9 24-297 limits assumed) above, with D39N, Q44E, S99G, G189S, N190S, M217L, T269S counted along it
T4 sequence (P61769 21-119 limits assumed, chain 2 of 2): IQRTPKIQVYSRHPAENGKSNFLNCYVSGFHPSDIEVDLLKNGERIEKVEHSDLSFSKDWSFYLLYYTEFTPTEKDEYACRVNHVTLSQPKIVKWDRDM
T3 sequence (P55899 24-365, chain 1 of 2): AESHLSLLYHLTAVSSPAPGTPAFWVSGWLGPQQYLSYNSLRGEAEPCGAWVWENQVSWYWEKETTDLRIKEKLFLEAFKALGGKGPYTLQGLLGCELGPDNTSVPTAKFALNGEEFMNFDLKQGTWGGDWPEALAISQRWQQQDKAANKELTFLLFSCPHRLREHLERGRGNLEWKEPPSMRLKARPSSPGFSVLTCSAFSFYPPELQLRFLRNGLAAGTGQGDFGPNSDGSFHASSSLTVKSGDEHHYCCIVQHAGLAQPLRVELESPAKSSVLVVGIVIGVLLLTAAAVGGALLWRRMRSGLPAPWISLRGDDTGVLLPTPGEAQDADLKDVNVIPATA
T3 sequence (P61769 21-119, chain 2 of 2): as the sequence (P61769 21-119 limits assumed, chain 2 of 2) above
T5 sequence (P61769 21-119 limits assumed): as the sequence (P61769 21-119 limits assumed, chain 2 of 2) above
Sequence of human FcRn (human FCGRT and B2M) on stably transfected MDCK cells (human) (P55899 24-365, chain 1 of 2): as the sequence (P55899 24-365, chain 1 of 2) above
Sequence of human FcRn (human FCGRT and B2M) on stably transfected MDCK cells (human) (P61769 21-119, chain 2 of 2, further chain): as the sequence (P61769 21-119 limits assumed, chain 2 of 2) above
Sequence of Human recombinant FCGRT & B2M Heterodimer Protein (hFcRn) (human) (P55899 24-297 limits assumed, chain 1 of 2): as the sequence (Q8SPV9 24-297 limits assumed) above, with D39N, Q44E, S99G, G189S, N190S, M217L, T269S counted along it
Sequence of Human recombinant FCGRT & B2M Heterodimer Protein (hFcRn) (human) (P61769 21-119 limits assumed, chain 2 of 2, further chain): as the sequence (P61769 21-119 limits assumed, chain 2 of 2) above

B1: Rozanolixizumab (antibody, part only; not given: Constant regions, V domains shown, not shown: another chain or arm of the molecule)
VH: EVPLVESGGGLVQPGGSLRLSCAVSGFTFSNYGMVWVRQAPGKGLEWVAYIDSDGDNTYYRDSVKGRFTISRDNAKSSLYLQMNSLRAEDTAVYYCTTGIVRPFLYWGQGTLVTVSS
VL: DIQMTQSPSSLSASVGDRVTITCKSSQSLVGASGKTYLYWLFQKPGKAPKRLIYLVSTLDSGIPSRFSGSGSGTEFTLTISSLQPEDFATYYCLQGTHFPHTFGQGTKLEIK
As a reminder, the EC50 (read off the curve) is the concentration that produces a half-maximal response. In general, IC50 refers to the concentration at which inhibition is half-maximal. By EC50 is commonly meant the midpoint of the concentration-response curve. As for B1, the EC50 (read off the curve) was determined as 0.1 nM in the test with human FCGRT [1], 0.2 nM in test [2] and 10 nM with human FCGRT [5]. For the same molecule, the results for the IC50 with human FCGRT [3] and with human FCGRT [7] were 11.6 nM and 10.9 nM, respectively. Further, the values for the IgG Recycle IC50 in test [4] and in test [8] were 11.8 nM and 7.8 nM, respectively. Besides, the EC50 in test [6] amounted to 1.04 nM.

B2: ZLP1-3-2F (antibody, V domains shown)
VH: QVQLQESGPGLVKPSETLSLTCAVSGYSFTSGYSWHWIRQPPGKGLEWIGYIHDSGGTNYNPSLKSRVTISRDTSKNQFSLKLSSVTAADTAVYYCAREENYRYFDVWGQGTLVTVSS
VL: EIVLTQSPATLSLSPGERATLSCSASSSVSYMHWFQQKPGQSPRLLIYSTSNLASGIPARFSGSGSGTDFTLTISSLEPEDFAVYYCQQRSSYPPTFGQGTKVEIK
As usually defined, the Kd is the constant that tells how readily two partners part at equilibrium. Regarding B2, in test [9], the “IgG Recycle IC50” value came out at 8.36 nM. For the same molecule, the results for the EC50 (in the test with human FCGRT [10]; in [11]; in test [15]) were 1.02 nM, 2.06 nM and 6.63 nM, respectively. For the same molecule, the 50% inhibitory concentration (IC50) in the test with human FCGRT [12] turned out to be 5.77 nM. Further, the Kd in test [13] was 0.609 nM. The binding result with human B2M [14] was “no binding (tested: about 700 nM (Log[Ab] about 2.8))”.

B3: ZLP1-3-2M (antibody, V domains shown)
VH: B2 VH with A23T, S25T
VL: B2 VL
One may read the koff as the first-order rate constant of dissociation. For orientation: kon means a measure of how fast the partners come together. As to B3, the “IgG Recycle IC50” value in test [9] stood at 11.9 nM. For the same molecule, the figures for the EC50 (with human FCGRT [10]; in [11]; in [15]) were 1.22 nM, 2.82 nM and 3.11 nM, respectively. Also, the IC50 with human FCGRT [12] worked out at 5.12 nM. Besides, the Kd in [13] was 0.493 nM. The koff in test [13] came out at 0.00184 s⁻¹. In addition, in test [13], the kon was 3.73e+06 M⁻¹ s⁻¹. Further, the binding result with human B2M [14] is “no binding (tested: about 700 nM (Log[Ab] about 2.8))”.

B4: ZLP1-3-2 (antibody, V domains shown)
VH: B2 VH
VL: B2 VL with L46W, F70Y
notes: also called humanized version of ZLP193
B4: in [9], the “IgG Recycle IC50” value stood at 4.04 nM. The EC50 in the test with human FCGRT [10] was 1.5 nM; in test [11] it was 3.12 nM; in [15], 2.95 nM. Moreover, the IC50 with human FCGRT [12] was determined as 6.16 nM. The binding result in the test with human B2M [14] was “no binding (tested: about 700 nM (Log[Ab] about 2.8))”.

B5: ZLP37 (antibody, V domains shown)
VH: EVQLQQSGVELARPGASVKMSCKASGYTFSSYAMQWVKKRPGQGLEWIGYINPGTGYTNYNQKFKDKATLTADKSSSTAYMHLSSLTSEDSAVYFCARGGGLRGAMDYWGQGTSVTVSS
VL: DIVLTQSPALMSASPGEKVTMTCSANSSVNYMYWYQQKPGSSPKLWIYSTSNLASGVPARFSGSGSGTSYSLTISSMEAEDAATYYCHQRSSYPWTFGGGTKLEIK
notes: Full-length chimeric antibody with human IgG1 or IgG4 heavy constant and human kappa or lambda light constant domain
As for B5, in the test with human FCGRT [16], the “IC50 (read off the curve)” value is roughly 40 nM. Further, the concentration giving a half-maximal response (EC50 (read off the curve)) is roughly 6 nM in [2], roughly 9 nM in test [19] and roughly 20 nM with human FCGRT [21]. In test [17], the “IgG Recycle IC50” value is 3.12 nM. The binding result (with human B2M [18]; in test [20]) was “no binding (tested: about 700 nM (Log[Ab] about 2.8))” in each case.

The values above are taken from US20250136699A1 (JIANGSU BIOJETAY BIOTECHNOLOGY, published 2025).
